Results published in paper PMC3128523.

Biological target: GST-tagged constitutively active Rab1A Q67L (Dictyostelium) (UniProt P34139)
Test: pull-down

Chain of UniProt P34139 (P34139 whole entry Q67L): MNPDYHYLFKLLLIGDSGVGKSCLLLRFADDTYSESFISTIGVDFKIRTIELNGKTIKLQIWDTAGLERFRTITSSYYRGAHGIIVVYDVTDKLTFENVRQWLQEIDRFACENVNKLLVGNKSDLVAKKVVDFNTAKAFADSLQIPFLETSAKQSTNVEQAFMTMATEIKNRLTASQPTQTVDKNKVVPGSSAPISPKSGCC

## T7-tagged Roco2 (wild type) (enzyme)
  fold of Roco2 pulled down against wild-type Rab1A: > 5 fold
